Measurements: publication PMC5955111, “The multifunctional protein YB-1 potentiates PARP1 activity and decreases the efficiency of PARP1 inhibitors”

Key:
[1] = target: YB-1 (human, UniProt P67809 1-324); assay: fluorescence anisotropy; no PARP1; 100 nM DNA, 0-1600 nM YB-1; 1x RB (composition not in the material); anisotropy at 25 C; EMSA: 37 C 10 min, 7.6% native PAGE in 25 mM Tris-borate pH 8.3 at 4 C; DNA 100 nM (anisotropy), 40 nM in Methods vs 100 nM in Figure 1B legend (EMSA); details: protein: recombinant; tags: His-tag; label: 3'-FAM on ODN1; for gel shift ODN1 also 5'-32P; blunt 32-bp duplex with a nick between ODN2 and ODN3; ODN1:ODN2:ODN3 annealed 1:1.2:1.2
[2] = target: YB-1;PARP1 (human;human, UniProt P67809;P09874 1-324;1-1014, |); assay: fluorescence anisotropy; 200 nM PARP1, 100 nM DNA, 0-1600 nM YB-1; ternary complex; 1x RB (composition not in the material); anisotropy at 25 C; EMSA: 37 C 10 min, 7.6% native PAGE in 25 mM Tris-borate pH 8.3 at 4 C; DNA 100 nM (anisotropy), 40 nM in Methods vs 100 nM in Figure 1B legend (EMSA); details: protein: recombinant;recombinant; tags: His-tag;; label: 3'-FAM on ODN1; for gel shift ODN1 also 5'-32P; blunt 32-bp duplex with a nick between ODN2 and ODN3; ODN1:ODN2:ODN3 annealed 1:1.2:1.2
YB-1;PARP1, sequence (P67809 whole entry, chain 1 of 2): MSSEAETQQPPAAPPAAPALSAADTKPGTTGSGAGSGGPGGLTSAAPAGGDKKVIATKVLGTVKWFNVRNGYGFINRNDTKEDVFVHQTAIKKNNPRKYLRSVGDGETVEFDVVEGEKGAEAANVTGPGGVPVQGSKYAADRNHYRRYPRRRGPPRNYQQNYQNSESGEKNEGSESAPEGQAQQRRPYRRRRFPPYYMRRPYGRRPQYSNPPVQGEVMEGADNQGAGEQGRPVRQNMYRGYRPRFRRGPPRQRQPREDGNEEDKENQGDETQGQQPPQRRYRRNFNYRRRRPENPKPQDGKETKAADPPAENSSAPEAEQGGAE
YB-1;PARP1, sequence (P09874 whole entry, chain 2 of 2): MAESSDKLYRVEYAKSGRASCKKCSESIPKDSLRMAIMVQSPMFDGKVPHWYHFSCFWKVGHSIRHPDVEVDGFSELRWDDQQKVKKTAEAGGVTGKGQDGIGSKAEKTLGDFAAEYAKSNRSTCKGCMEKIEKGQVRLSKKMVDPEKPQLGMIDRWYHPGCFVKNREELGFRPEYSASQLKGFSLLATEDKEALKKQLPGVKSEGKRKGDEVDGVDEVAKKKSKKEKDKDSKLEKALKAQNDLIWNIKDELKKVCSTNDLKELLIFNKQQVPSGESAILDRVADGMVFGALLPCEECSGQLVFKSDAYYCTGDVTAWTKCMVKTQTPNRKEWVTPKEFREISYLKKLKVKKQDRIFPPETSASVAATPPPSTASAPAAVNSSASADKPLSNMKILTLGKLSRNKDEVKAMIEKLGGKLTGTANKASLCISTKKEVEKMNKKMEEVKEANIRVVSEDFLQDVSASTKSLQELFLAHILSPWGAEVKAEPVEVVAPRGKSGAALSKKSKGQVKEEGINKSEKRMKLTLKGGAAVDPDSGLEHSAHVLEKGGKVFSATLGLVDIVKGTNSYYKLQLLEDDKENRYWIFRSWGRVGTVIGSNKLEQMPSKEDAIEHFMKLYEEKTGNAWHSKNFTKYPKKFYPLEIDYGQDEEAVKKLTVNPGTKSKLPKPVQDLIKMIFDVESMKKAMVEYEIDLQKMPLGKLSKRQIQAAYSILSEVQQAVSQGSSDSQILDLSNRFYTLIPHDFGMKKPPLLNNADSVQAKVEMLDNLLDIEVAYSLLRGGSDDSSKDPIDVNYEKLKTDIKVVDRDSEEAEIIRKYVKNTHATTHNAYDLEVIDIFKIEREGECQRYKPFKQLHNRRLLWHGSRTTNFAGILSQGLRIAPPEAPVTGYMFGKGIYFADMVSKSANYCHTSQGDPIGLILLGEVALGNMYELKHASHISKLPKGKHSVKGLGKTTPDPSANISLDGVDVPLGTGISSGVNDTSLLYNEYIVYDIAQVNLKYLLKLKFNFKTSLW

YB-1, sequence (P67809 whole entry): as the sequence (P67809 whole entry, chain 1 of 2) above

B1: Nick (ODN1+ODN2+ODN3) (dsDNA)
DNA 1: GGAAGACCCTGACGTTTCCCAACTTTATCGCC
DNA 2: GGCGATAAAGTTGGG
DNA 3: AAACGTCAGGGTCTTCC
B1: binds [1]; binds [2].
